These results are taken from publication PMC8274477 (Frontiers in Cell and Developmental Biology, 2021).

Sequences and labels used below:
B1: DECR2 (natural protein, human, UniProt Q9NUI1 1-292, looked up)
chain: MAQPPPDVEGDDCLPAYRHLFCPDLLRDKVAFITGGGSGIGFRIAEIFMRHGCHTVIASRSLPRVLTAARKLAGATGRRCLPLSMDVRAPPAVMAAVDQALKEFGRIDILINCAAGNFLCPAGALSFNAFKTVMDIDTSGTFNVSRVLYEKFFRDHGGVIVNITATLGNRGQALQVHAGSAKAAVDAMTRHLAVEWGPQNIRVNSLAPGPISGTEGLRRLGGPQASLSTKVTASPLQRLGNKTEIAHSVLYLASPLASYVTGAVLVADGGAWLTFPNGVKGLPDFASFSAKL
notes: DECR2; protein on the human proteome microarray; source: spotted on the HuProt human proteome microarray
B2: KHDRBS3 (natural protein, human, UniProt O75525 1-346, looked up)
chain: MEEKYLPELMAEKDSLDPSFTHALRLVNQEIEKFQKGEGKDEEKYIDVVINKNMKLGQKVLIPVKQFPKFNFVGKLLGPRGNSLKRLQEETLTKMSILGKGSMRDKAKEEELRKSGEAKYFHLNDDLHVLIEVFAPPAEAYARMGHALEEIKKFLIPDYNDEIRQAQLQELTYLNGGSENADVPVVRGKPTLRTRGVPAPAITRGRGGVTARPVGVVVPRGTPTPRGVLSTRGPVSRGRGLLTPRARGVPPTGYRPPPPPPTQETYGEYDYDDGYGTAYDEQSYDSYDNSYSTPAQSGADYYDYGHGLSEETYDSYGQEEWTNSRHKAPSARTAKGVYRDQPYGRY
notes: KHDRBS3; protein on the human proteome microarray; source: spotted on the HuProt human proteome microarray
B3: CRYZ (natural protein, human, UniProt Q08257 1-329, looked up)
chain: MATGQKLMRAVRVFEFGGPEVLKLRSDIAVPIPKDHQVLIKVHACGVNPVETYIRSGTYSRKPLLPYTPGSDVAGVIEAVGDNASAFKKGDRVFTSSTISGGYAEYALAADHTVYKLPEKLDFKQGAAIGIPYFTAYRALIHSACVKAGESVLVHGASGGVGLAACQIARAYGLKILGTAGTEEGQKIVLQNGAHEVFNHREVNYIDKIKKYVGEKGIDIIIEMLANVNLSKDLSLLSHGGRVIVVGSRGTIEINPRDTMAKESSIIGVTLFSSTKEEFQQYAAALQAGMEIGWLKPVIGSQYPLEKVAEAHENIIHGSGATGKMILLL
notes: CRYZ; protein on the human proteome microarray; source: spotted on the HuProt human proteome microarray
B4: GSTZ1 (natural protein, human, UniProt O43708 1-216, looked up)
chain: MQAGKPILYSYFRSSCSWRVRIALALKGIDYKTVPINLIKDRGQQFSKDFQALNPMKQVPTLKIDGITIHQSLAIIEYLEEMRPTPRLLPQDPKKRASVRMISDLIAGGIQPLQNLSVLKQVGEEMQLTWAQNAITCGFNALEQILQSTAGIYCVGDEVTMADLCLVPQVANAERFKVDLTPYPTISSINKRLLVLEAFQVSHPCRQPDTPTELRA
notes: GSTZ1; protein on the human proteome microarray; source: spotted on the HuProt human proteome microarray
B5: C9orf9 (natural protein, human, UniProt Q96E40 1-222, looked up)
chain: MNEVKESLRSIEQKYKLFQQQQLTFTAALEHCRENAHDKIRPISSIGQVQSYMEHYCNSSTDRRVLLMFLDICSELNKLCQHFEAVHSGTPVTNNLLEKCKTLVSQSNDLSSLRAKYPHDVVNHLSCDEARNHYGGVVSLIPLILDLMKEWIAHSEKLPRKVLQHVSEPQAHQESTRGAARPAQAIGTQPRATKHKCRQLTKASLKPRGCSKPPWRPPGGKL
notes: C9orf9; protein on the human proteome microarray; source: spotted on the HuProt human proteome microarray
B6: CSRP3 (natural protein, human, UniProt P50461 1-194, looked up)
chain: MPNWGGGAKCGACEKTVYHAEEIQCNGRSFHKTCFHCMACRKALDSTTVAAHESEIYCKVCYGRRYGPKGIGYGQGAGCLSTDTGEHLGLQFQQSPKPARSVTTSNPSKFTAKFGESEKCPRCGKSVYAAEKVMGGGKPWHKTCFRCAICGKSLESTNVTDKDGELYCKVCYAKNFGPTGIGFGGLTQQVEKKE
notes: CSRP3; protein on the human proteome microarray; source: spotted on the HuProt human proteome microarray
B7: HTATIP2 (natural protein, human, UniProt Q9BUP3 1-242, looked up)
chain: MAETEALSKLREDFRMQNKSVFILGASGETGRVLLKEILEQGLFSKVTLIGRRKLTFDEEAYKNVNQEVVDFEKLDDYASAFQGHDVGFCCLGTTRGKAGAEGFVRVDRDYVLKSAELAKAGGCKHFNLLSSKGADKSSNFLYLQVKGEVEAKVEELKFDRYSVFRPGVLLCDRQESRPGEWLVRKFFGSLPDSWASGHSVPVVTVVRAMLNNVVRPRDKQMELLENKAIHDLGKAHGSLKP
notes: HTATIP2; protein on the human proteome microarray; source: spotted on the HuProt human proteome microarray
B8: CCNB1IP1 (natural protein, human, UniProt Q9NPC3 1-277, looked up)
chain: MSLCEDMLLCNYRKCRIKLSGYAWVTACSHIFCDQHGSGEFSRSPAICPACNSTLSGKLDIVRTELSPSEEYKAMVLAGLRPEIVLDISSRALAFWTYQVHQERLYQEYNFSKAEGHLKQMEKIYTQQIQSKDVELTSMKGEVTSMKKVLEEYKKKFSDISEKLMERNRQYQKLQGLYDSLRLRNITIANHEGTLEPSMIAQSGVLGFPLGNNSKFPLDNTPVRNRGDGDGDFQFRPFFAGSPTAPEPSNSFFSFVSPSRELEQQQVSSRAFKVKRI
notes: CCNB1IP1; protein on the human proteome microarray; source: spotted on the HuProt human proteome microarray
B9: DNALI1 (natural protein, human, UniProt O14645 1-258, looked up)
chain: MIPPADSLLKYDTPVLVSRNTEKRSPKARLLKVSPQQPGPSGSAPQPPKTKLPSTPCVPDPTKQAEEILNAILPPREWVEDTQLWIQQVSSTPSTRMDVVHLQEQLDLKLQQRQARETGICPVRRELYSQCFDELIREVTINCAERGLLLLRVRDEIRMTIAAYQTLYESSVAFGMRKALQAEQGKSDMERKIAELETEKRDLERQVNEQKAKCEATEKRESERRQVEEKKHNEEIQFLKRTNQQLKAQLEGIIAPKK
notes: DNALI1; protein on the human proteome microarray; source: spotted on the HuProt human proteome microarray
B10: GTF2B (natural protein, human, UniProt Q00403 1-316, looked up)
chain: MASTSRLDALPRVTCPNHPDAILVEDYRAGDMICPECGLVVGDRVIDVGSEWRTFSNDKATKDPSRVGDSQNPLLSDGDLSTMIGKGTGAASFDEFGNSKYQNRRTMSSSDRAMMNAFKEITTMADRINLPRNIVDRTNNLFKQVYEQKSLKGRANDAIASACLYIACRQEGVPRTFKEICAVSRISKKEIGRCFKLILKALETSVDLITTGDFMSRFCSNLCLPKQVQMAATHIARKAVELDLVPGRSPISVAAAAIYMASQASAEKRTQKEIGDIAGVADVTIRQSYRLIYPRAPDLFPTDFKFDTPVDKLPQL
notes: GTF2B; protein on the human proteome microarray; source: spotted on the HuProt human proteome microarray
B11: FAM49B (natural protein, human, UniProt Q9NUQ9 1-324, looked up)
chain: MGNLLKVLTCTDLEQGPNFFLDFENAQPTESEKEIYNQVNVVLKDAEGILEDLQSYRGAGHEIREAIQHPADEKLQEKAWGAVVPLVGKLKKFYEFSQRLEAALRGLLGALTSTPYSPTQHLEREQALAKQFAEILHFTLRFDELKMTNPAIQNDFSYYRRTLSRMRINNVPAEGENEVNNELANRMSLFYAEATPMLKTLSDATTKFVSENKNLPIENTTDCLSTMASVCRVMLETPEYRSRFTNEETVSFCLRVMVGVIILYDHVHPVGAFAKTSKIDMKGCIKVLKDQPPNSVEGLLNALRYTTKHLNDETTSKQIKSMLQ
notes: FAM49B; protein on the human proteome microarray; source: spotted on the HuProt human proteome microarray
B12: CDCA3 (natural protein, human, UniProt Q99618 1-268, looked up)
chain: MGSAKSVPVTPARPPPHNKHLARVADPRSPSAGILRTPIQVESSPQPGLPAGEQLEGLKHAQDSDPRSPTLGIARTPMKTSSGDPPSPLVKQLSEVFETEDSKSNLPPEPVLPPEAPLSSELDLPLGTQLSVEEQMPPWNQTEFPSKQVFSKEEARQPTETPVASQSSDKPSRDPETPRSSGSMRNRWKPNSSKVLGRSPLTILQDDNSPGTLTLRQGKRPSPLSENVSELKEGAILGTGRLLKTGGRAWEQGQDHDKENQHFPLVES
notes: CDCA3; protein on the human proteome microarray; source: spotted on the HuProt human proteome microarray
B13: CUTA (natural protein, human, UniProt O60888 33-179, looked up)
chain: RLLLLPRVLLTMASGSPPTQPSPASDSGSGYVPGSVSAAFVTCPNEKVAKEIARAVVEKRLAACVNLIPQITSIYEWKGKIEEDSEVLMMIKTQSSLVPALTDFVRSVHPYEVAEVIALPVEQGNFPYLQWVRQVTESVSDSITVLP
notes: CUTA; protein on the human proteome microarray; source: spotted on the HuProt human proteome microarray
B14: GCLM (natural protein, human, UniProt P48507 1-274, looked up)
chain: MGTDSRAAKALLARARTLHLQTGNLLNWGRLRKKCPSTHSEELHDCIQKTLNEWSSQINPDLVREFPDVLECTVSHAVEKINPDEREEMKVSAKLFIVESNSSSSTRSAVDMACSVLGVAQLDSVIIASPPIEDGVNLSLEHLQPYWEELENLVQSKKIVAIGTSDLDKTQLEQLYQWAQVKPNSNQVNLASCCVMPPDLTAFAKQFDIQLLTHNDPKELLSEASFQEALQESIPDIQAHEWVPLWLLRYSVIVKSRGIIKSKGYILQAKRRGS
notes: GCLM; protein on the human proteome microarray; source: spotted on the HuProt human proteome microarray
B15: CSRP1 (natural protein, human, UniProt P21291 1-193, looked up)
chain: MPNWGGGKKCGVCQKTVYFAEEVQCEGNSFHKSCFLCMVCKKNLDSTTVAVHGEEIYCKSCYGKKYGPKGYGYGQGAGTLSTDKGESLGIKHEEAPGHRPTTNPNASKFAQKIGGSERCPRCSQAVYAAEKVIGAGKSWHKACFRCAKCGKGLESTTLADKDGEIYCKGCYAKNFGPKGFGFGQGAGALVHSE
notes: CSRP1; protein on the human proteome microarray; source: spotted on the HuProt human proteome microarray
B16: ISG20 (natural protein)
chain: not shown
notes: ISG20; protein on the human proteome microarray; source: spotted on the HuProt human proteome microarray
B17: GAPDH (natural protein)
chain: not shown
notes: GAPDH; protein on the human proteome microarray; source: spotted on the HuProt human proteome microarray
B18: EIF4H (natural protein)
chain: not shown
notes: EIF4H; protein on the human proteome microarray; source: spotted on the HuProt human proteome microarray
B19: GBGT1 (natural protein, human, UniProt Q8N5D6 1-347, looked up)
chain: MHRRRLALGLGFCLLAGTSLSVLWVYLENWLPVSYVPYYLPCPEIFNMKLHYKREKPLQPVVWSQYPQPKLLEHRPTQLLTLTPWLAPIVSEGTFNPELLQHIYQPLNLTIGVTVFAVGKYTHFIQSFLESAEEFFMRGYRVHYYIFTDNPAAVPGVPLGPHRLLSSIPIQGHSHWEETSMRRMETISQHIAKRAHREVDYLFCLDVDMVFRNPWGPETLGDLVAAIHPSYYAVPRQQFPYERRRVSTAFVADSEGDFYYGGAVFGGQVARVYEFTRGCHMAILADKANGIMAAWREESHLNRHFISNKPSKVLSPEYLWDDRKPQPPSLKLIRFSTLDKDISCLRS
notes: GBGT1; protein on the human proteome microarray; source: spotted on the HuProt human proteome microarray
B20: CYB5R1 (natural protein, human, UniProt Q9UHQ9 1-305, looked up)
chain: MGIQTSPVLLASLGVGLVTLLGLAVGSYLVRRSRRPQVTLLDPNEKYLLRLLDKTTVSHNTKRFRFALPTAHHTLGLPVGKHIYLSTRIDGSLVIRPYTPVTSDEDQGYVDLVIKVYLKGVHPKFPEGGKMSQYLDSLKVGDVVEFRGPSGLLTYTGKGHFNIQPNKKSPPEPRVAKKLGMIAGGTGITPMLQLIRAILKVPEDPTQCFLLFANQTEKDIILREDLEELQARYPNRFKLWFTLDHPPKDWAYSKGFVTADMIREHLPAPGDDVLVLLCGPPPMVQLACHPNLDKLGYSQKMRFTY
notes: CYB5R1; protein on the human proteome microarray; source: spotted on the HuProt human proteome microarray

The experiment concerns the target T1, OTULIN (OTU deubiquitinase with linear linkage specificity, FAM105B), His-tagged, biotin-labelled (human, UniProt Q96BN8 1-352, biotin (label; sites not stated)).
T1 construct: OTULIN (FAM105B), cDNA in pET28a; also called HIS-OTULIN; source: E. coli BL21 (DE3), purified (His-tag Purification Resin), labelled with biotin; not shown: His6, N-terminal, kept
Briefly: peptide or protein array; HuProt human proteome microarray; 5 ug/5 ml biotin-labelled LUBAC or OTULIN in solution, 1 h at room temperature; Cy5-streptavidin, scanned at 635 nm; BSA as negative control; hits: Z-score >= 3 and I_(Mean_Ratio) >= 1.4. The settings on record: both partners purified.
B1: the binding result was “binds”.

Regarding B2, the binding result was “binds”. Next, B3: “binds”; B4: “binds”; B5: “binds”. B6: the binding result is recorded as “binds”. Next, B7: “binds”. For the molecule B8, the binding result is recorded as “binds”. For B9 the value was “binds”. For the molecule B10, the binding result is recorded as “binds”.

For B11, the binding result is “binds”. Turning to B12, the binding result was “binds”. On to B13, for which the binding result is on record as “binds”. With B14, the binding result was “binds”. For B15 the value was “binds”; for B16, “binds”; for B17, “binds”. Consider B18, for which the binding result is on record as “binds”. On to B19, for which the binding result was “binds”. With B20, the binding result is reported as “binds”.
